Molecular target: FcRn
Experiment: Biacore FcRn binding

EC50: ~680 nM
B1: Fc-loop TN8-19-07 (clone #6951) (Fc fusion)
chain: MDKTHTCPPCPAPELLGGPSVFLFPPKPKDTLMISRTPEVTCVVVDVSHEDPEVKFNWYVDGVEVHNAKTKPREEQYNSTYRVVSVLTVLHQDWLNGKEYKCKVSNKALPAPIEKTISKAKGQPREPQVYTLPPSRDELGGLADHGQCIRWPWMCPPEGWEGGTKNQVSLTCLVKGFYPSDIAVEWESNGQPENNYKTTPPVLDSDGSFFLYSKLTVDKSRWQQGNVFSCSVMHEALHNHYTQKSLSLSPGK
notes: also called Fc-loop-myo7; myostatin loop peptibody
